Data as given in the supplement of paper PMC6757056.
± gives the standard deviation of the averaged measurements.

B1: library; a variant is named by its letters at N, in order (parent)
chain: GCUGUCACCGAGAAACUGUGAAGUAUAUCUUAAACCUGGGCACUUAAAAGAUAUAUGGAGUUAGUAGUGCAACCUGCUCGGUCUGAUGAGUCCNNNNNNGGACGAAACAGC

How the values were obtained:
cyclic di-GMP [1] = variants of: B1; experiment: normalized RNA/DNA level without ligand (relative to sTRSVctl = 100) (log10 (% of sTRSVctl)); HEK293T; ligand: cyclic di-GMP (c-di-GMP-II aptamer); higher = less ribozyme self-cleavage, higher mRNA level; settings: reporter: mCherry (pCS4076), ligand present: no
Outline: (§1)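 Ribozyme switch library plasmids linked to reporters were introduced into HEK293T cells at 4 µg per 6-well well, with ligand, if any, added 1 h before. Total RNA was extracted with EDTA 72 h later, reverse-transcribed, amplified, barcoded and sequenced. RNA level was computed from RNA over DNA reads relative to a spiked-in non-cleaving sequence or the top sequences, then scaled and log-transformed. The top set was 25 sequences, values were ×100 and log10, and the cutoff was ≥100 DNA reads.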

cyclic di-GMP [2] = variants of: B1; experiment: normalized RNA/DNA level with ligand (relative to sTRSVctl = 100) (log10 (% of sTRSVctl)); HEK293T; ligand: cyclic di-GMP (c-di-GMP-II aptamer); ligand concentration (+) RNA-Seq: 1 mM; higher = less ribozyme self-cleavage, higher mRNA level; settings: reporter: mCherry (pCS4076), ligand present: yes
Outline: as §1

Row | Variant | normalized RNA/DNA level without ligand (log10) (cyclic di-GMP [1]) | normalized RNA/DNA level with ligand (log10) (cyclic di-GMP [2])
1 | AGACCA | 1.75 ± 0.031 | 1.88 ± 0.15
2 | GCGGUA | 1.55 ± 0.046 | 1.69 ± 0.09
3 | ACAGUC | 1.62 ± 0.045 | 1.78 ± 0.11
4 | UUGUCA | 1.77 ± 0.045 | 1.9 ± 0.1
5 | GAUAUG | 1.52 ± 0.028 | 1.71 ± 0.096
6 | UAAUUG | 1.71 ± 0.04 | 1.83 ± 0.13
7 | CCUCUC | 1.79 ± 0.053 | 1.89 ± 0.14
8 | GAUGCG | 1.82 ± 0.063 | 1.89 ± 0.13
9 | GGCCCA | 1.8 ± 0.035 | 1.88 ± 0.082
10 | CGCGGG | 1.67 ± 0.1 | 1.87 ± 0.047
11 | ACAAGG | 1.33 ± 0.17 | 1.54 ± 0.098
12 | UCCAAU | 1.645 ± 0.015 | 1.82 ± 0.12
13 | GUGAAC | 1.5 ± 0.08 | 1.69 ± 0.13
14 | UGACAU | 1.62 ± 0.074 | 1.81 ± 0.075
15 | AGUUCC | 1.8 ± 0.043 | 1.9 ± 0.084
16 | CGGGAU | 1.49 ± 0.05 | 1.64 ± 0.13
17 | ACCGUA | 1.51 ± 0.034 | 1.68 ± 0.13
18 | GUGCUC | 1.505 ± 0.0047 | 1.65 ± 0.17
19 | UAAUCC | 1.8 ± 0.031 | 1.89 ± 0.077
20 | UUUUGU | 1.74 ± 0.035 | 1.87 ± 0.15
21 | CAAGCC | 1.76 ± 0.022 | 1.85 ± 0.087
22 | UCUGGC | 1.78 ± 0.025 | 1.88 ± 0.068
23 | CUCCCU | 1.661 ± 0.0018 | 1.76 ± 0.05

Row | Variant | normalized RNA/DNA level without ligand (log10) (cyclic di-GMP [1]) | normalized RNA/DNA level with ligand (log10) (cyclic di-GMP [2])
24 | AGAGGG | 1.47 ± 0.098 | 1.62 ± 0.13
25 | AAGGAC | 1.53 ± 0.1 | 1.73 ± 0.072
26 | GGUAUA | 1.5 ± 0.066 | 1.72 ± 0.025
27 | UGAGCG | 1.8 ± 0.12 | 1.86 ± 0.16
28 | CACUAU | 1.52 ± 0.067 | 1.72 ± 0.076
29 | GAUCCA | 1.71 ± 0.032 | 1.85 ± 0.1
30 | UGGCGU | 1.6 ± 0.03 | 1.81 ± 0.16
31 | GACCGU | 1.74 ± 0.066 | 1.86 ± 0.03
32 | GUGUGA | 1.41 ± 0.11 | 1.67 ± 0.084
33 | CCUCGU | 1.75 ± 0.057 | 1.86 ± 0.084
34 | AUAGCC | 1.76 ± 0.022 | 1.87 ± 0.095
35 | GCGGCC | 1.73 ± 0.039 | 1.86 ± 0.15
36 | CGGGCU | 1.84 ± 0.033 | 1.92 ± 0.14
37 | UCUUUU | 1.744 ± 0.012 | 1.84 ± 0.073
38 | UGAGGA | 1.54 ± 0.091 | 1.75 ± 0.088
39 | GACGGC | 1.627 ± 0.0064 | 1.72 ± 0.088
40 | GCUACA | 1.583 ± 0.0028 | 1.79 ± 0.072
41 | GUUCCG | 1.82 ± 0.039 | 1.94 ± 0.1
42 | UAAGGG | 1.58 ± 0.031 | 1.73 ± 0.13
43 | AGUUAA | 1.52 ± 0.08 | 1.68 ± 0.086
44 | CUGCGU | 1.723 ± 0.013 | 1.84 ± 0.1
45 | AUGUUG | 1.56 ± 0.036 | 1.72 ± 0.14
46 | GUAAUU | 1.689 ± 0.016 | 1.78 ± 0.054

Row | Variant | normalized RNA/DNA level without ligand (log10) (cyclic di-GMP [1]) | normalized RNA/DNA level with ligand (log10) (cyclic di-GMP [2])
47 | CGACAC | 1.594 ± 0.0068 | 1.76 ± 0.11
48 | UGUCCC | 1.81 ± 0.072 | 1.88 ± 0.17
49 | UUUCGG | 1.8 ± 0.066 | 1.93 ± 0.12
50 | UUUCCU | 1.812 ± 0.016 | 1.92 ± 0.1
51 | AGGUCG | 1.738 ± 0.013 | 1.82 ± 0.11
52 | UUUGGA | 1.65 ± 0.051 | 1.79 ± 0.085
53 | GGUCUC | 1.73 ± 0.075 | 1.87 ± 0.12
54 | UGCAAG | 1.777 ± 0.0085 | 1.9 ± 0.088
55 | CCGACG | 1.6 ± 0.089 | 1.79 ± 0.052
56 | UUUCCA | 1.78 ± 0.028 | 1.9 ± 0.13
57 | GUACUA | 1.61 ± 0.036 | 1.8 ± 0.065
58 | ACCACG | 1.633 ± 0.01 | 1.81 ± 0.12
59 | UCAGGU | 1.58 ± 0.12 | 1.76 ± 0.12
60 | GCUAAG | 1.49 ± 0.032 | 1.71 ± 0.1
61 | UGAGUA | 1.73 ± 0.032 | 1.85 ± 0.15
62 | CCAACA | 1.53 ± 0.029 | 1.72 ± 0.13
63 | GAUUCA | 1.72 ± 0.021 | 1.85 ± 0.064
64 | AAGGCA | 1.63 ± 0.05 | 1.71 ± 0.096
65 | GUGCGA | 1.6 ± 0.071 | 1.73 ± 0.1
66 | UUUGCA | 1.78 ± 0.018 | 1.85 ± 0.1
67 | GCGUUG | 1.56 ± 0.042 | 1.75 ± 0.11
68 | UGGGCG | 1.84 ± 0.035 | 1.92 ± 0.13
69 | GACUAC | 1.7044 ± 0.00077 | 1.82 ± 0.15

Row | Variant | normalized RNA/DNA level without ligand (log10) (cyclic di-GMP [1]) | normalized RNA/DNA level with ligand (log10) (cyclic di-GMP [2])
70 | GUGAGU | 1.59 ± 0.053 | 1.77 ± 0.11
71 | UCUCUG | 1.718 ± 0.015 | 1.87 ± 0.14
72 | UAACAG | 1.68 ± 0.02 | 1.86 ± 0.098
73 | GCUCUC | 1.66 ± 0.026 | 1.81 ± 0.079
74 | GCCCAC | 1.656 ± 0.0072 | 1.82 ± 0.14
75 | UUAGUC | 1.72 ± 0.048 | 1.83 ± 0.086
76 | AAUUUC | 1.721 ± 0.0067 | 1.87 ± 0.08
77 | GUCGGG | 1.73 ± 0.025 | 1.84 ± 0.13
78 | GAGGAC | 1.67 ± 0.053 | 1.79 ± 0.11
79 | GUGUGG | 1.74 ± 0.041 | 1.86 ± 0.11
80 | GUGUCA | 1.75 ± 0.027 | 1.85 ± 0.11
81 | CCGGCC | 1.77 ± 0.04 | 1.86 ± 0.15
82 | CUUGCU | 1.76 ± 0.021 | 1.86 ± 0.12
83 | AAGUAG | 1.68 ± 0.024 | 1.77 ± 0.12
84 | CGACUC | 1.72 ± 0.03 | 1.86 ± 0.14
85 | GUUGAU | 1.61 ± 0.033 | 1.76 ± 0.14
86 | UUCCGA | 1.79 ± 0.045 | 1.92 ± 0.12
87 | GCUGCU | 1.682 ± 0.0098 | 1.8 ± 0.11
88 | GCCCGA | 1.62 ± 0.052 | 1.79 ± 0.079
89 | AUACUA | 1.597 ± 0.0074 | 1.78 ± 0.18
90 | AUCGCA | 1.65 ± 0.018 | 1.77 ± 0.12
91 | CGAUCC | 1.82 ± 0.026 | 1.9 ± 0.088
92 | CCCAAG | 1.587 ± 0.0023 | 1.74 ± 0.17

Row | Variant | normalized RNA/DNA level without ligand (log10) (cyclic di-GMP [1]) | normalized RNA/DNA level with ligand (log10) (cyclic di-GMP [2])
93 | GGGUGC | 1.749 ± 0.006 | 1.85 ± 0.093
94 | UAAGAG | 1.61 ± 0.017 | 1.74 ± 0.086
95 | UUACUC | 1.747 ± 0.0026 | 1.84 ± 0.093
96 | UGGGCA | 1.835 ± 0.0077 | 1.93 ± 0.08
97 | CUUAAC | 1.679 ± 0.014 | 1.8 ± 0.079
98 | UUUGUG | 1.72 ± 0.042 | 1.91 ± 0.05
99 | GAUCGC | 1.74 ± 0.019 | 1.86 ± 0.051
100 | UCAGUU | 1.52 ± 0.16 | 1.74 ± 0.13
101 | CAUCAU | 1.56 ± 0.064 | 1.72 ± 0.072
102 | CUUUUC | 1.73 ± 0.022 | 1.85 ± 0.12
103 | UGGUCC | 1.86 ± 0.085 | 1.98 ± 0.085
104 | AUAUAU | 1.678 ± 0.0055 | 1.83 ± 0.11
105 | AUACUU | 1.658 ± 0.0084 | 1.83 ± 0.13
106 | GGAAUC | 1.55 ± 0.016 | 1.76 ± 0.09
107 | UCUGCC | 1.8 ± 0.045 | 1.91 ± 0.064
108 | GCAGCC | 1.6725 ± 0.00097 | 1.83 ± 0.14
109 | UUCGCG | 1.837 ± 0.0073 | 1.93 ± 0.089
110 | CAGAGU | 1.652 ± 0.0071 | 1.86 ± 0.11
111 | UCAACC | 1.78 ± 0.044 | 1.9 ± 0.067
112 | UUGAUC | 1.73 ± 0.038 | 1.85 ± 0.11
113 | AGCUAC | 1.709 ± 0.017 | 1.81 ± 0.14
114 | UCAUAG | 1.65 ± 0.02 | 1.77 ± 0.17
115 | CUCCCA | 1.718 ± 0.0069 | 1.87 ± 0.052
